The values below come from patent US20140271457A1 (AbbVie / Abbott, published 2014).

Bounds are passed on as bounds.

B1: DVD2713 (bispecific antibody, IgG1)
VH: EVQLVESGGGLVQPGGSLRLSCAASGFTFSNYGVTWVRQAPGKGLEWVSMIWADGSTHYASSVKGRFTISRDNSKNTLYLQMNSLRAEDTAVYYCAREWQHGPVAYWGQGTLVTVSSGGGGSGGGGSEVQLVESGGGLVQPGGSLRLSCAASGFSLTNNNVNWVRQAPGKGLEWVGGVWAGGATDYNSALKSRFTISRDNSKNTAYLQMNSLRAEDTAVYYCARDGGYSSSTLYAMDAWGQGTLVTVSS
VL: DIQMTQSPSSLSASVGDRVTITCRASQLVSSAVAWYQQKPGKAPKLLIYWASARHTGVPSRFSGSGSGTDFTLTISSLQPEDFATYYCQQHYKTPFTFGQGTKLEIKRGGSGGGGSGDIQMTQSPSSLSASVGDRVTITCRASEDIYNALAWYQQKPGKAPKLLIYNTDTLHTGVPSRFSGSGSGTDYTLTISSLQPEDFATYFCQHYFHYPRTFGQGTKVEIKR
B2: DVD2714 (bispecific antibody, IgG1)
VH: EVQLVESGGGLVQPGGSLRLSCAASGFTFSNYGVTWVRQAPGKGLEWVSMIWADGSTHYASSVKGRFTISRDNSKNTLYLQMNSLRAEDTAVYYCAREWQHGPVAYWGQGTLVTVSSASTKGPEVQLVESGGGLVQPGGSLRLSCAASGFSLTNNNVNWVRQAPGKGLEWVGGVWAGGATDYNSALKSRFTISRDNSKNTAYLQMNSLRAEDTAVYYCARDGGYSSSTLYAMDAWGQGTLVTVSS
VL: DIQMTQSPSSLSASVGDRVTITCRASQLVSSAVAWYQQKPGKAPKLLIYWASARHTGVPSRFSGSGSGTDFTLTISSLQPEDFATYYCQQHYKTPFTFGQGTKLEIKRTVAAPDIQMTQSPSSLSASVGDRVTITCRASEDIYNALAWYQQKPGKAPKLLIYNTDTLHTGVPSRFSGSGSGTDYTLTISSLQPEDFATYFCQHYFHYPRTFGQGTKVEIKR
B3: DVD2716 (bispecific antibody, IgG1)
VH: B2 VH
VL: DIQMTQSPSSLSASVGDRVTITCRASQLVSSAVAWYQQKPGKAPKLLIYWASARHTGVPSRFSGSGSGTDFTLTISSLQPEDFATYYCQQHYKTPFTFGQGTKLEIKRTVAAPSVFIFPPDIQMTQSPSSLSASVGDRVTITCRASEDIYNALAWYQQKPGKAPKLLIYNTDTLHTGVPSRFSGSGSGTDYTLTISSLQPEDFATYFCQHYFHYPRTFGQGTKVEIKR
B4: DVD3047 (bispecific antibody, IgG1)
VH: EVQLVESGGGLVQPGGSLRLSCAASGFSLTNNNVNWVRQAPGKGLEWVGGVWAGGATDYNSALKSRFTISRDNSKNTAYLQMNSLRAEDTAVYYCARDGGYSSSTLYAMDAWGQGTLVTVSSASTKGPSVFPLAPEVQLVQSGAEVKKPGASVKVSCKASGYTFNNYGIIWVRQAPGQGLEWMGWINTYTGKPTYAQKFQGRVTMTTDTSTSTAYMELSSLRSEDTAVYYCARKLFNTVAVTDNAMDYWGQGTTVTVSS
VL: DIQMTQSPSSLSASVGDRVTITCRASEDIYNALAWYQQKPGKAPKLLIYNTDTLHTGVPSRFSGSGSGTDYTLTISSLQPEDFATYFCQHYFHYPRTFGQGTKVEIKRTVAAPDIQMTQSPSSLSASVGDRVTITCRASQDIENYLNWYQQKPGKAPKLLIYYTSRLQSGVPSRFSGSGSGTDFTLTISSLQPEDFATYFCQQGNTQPPTFGQGTKLEIKR
B5: AB267 (antibody, V domains shown)
VH: EVQLVESGGGLVQPGGSLRLSCAASGFSLTNNNVNWVRQAPGKGLEWVGGVWAGGATDYNSALKSRFTISRDNSKNTAYLQMNSLRAEDTAVYYCARDGGYSSSTLYAMDAWGQGTLVTVSS
VL: DIQMTQSPSSLSASVGDRVTITCRASEDIYNALAWYQQKPGKAPKLLIYNTDTLHTGVPSRFSGSGSGTDYTLTISSLQPEDFATYFCQHYFHYPRTFGQGTKVEIKR
B6: DVD2689 (bispecific antibody, human IgG1, kappa)
heavy: not shown
light: DIQMTQSPSSLSASVGDRVTISCRASQDIRNYLNWYQQKPGKAPKLLIFYTSKLHSGVPSRFSGSGSGTDYTLTISSLQPEDIATYYCQQGLTPPLTFGGGTKVEIKRTVAAPDIQMTQSPSSLSASVGDRVTITCRASQLVSSAVAWYQQKPGKAPKLLIYWASARHTGVPSRFSGSGSGTDFTLTISSLQPEDFATYYCQQHYKTPFTFGQGTKLEIKRTVAAPSVFIFPPSDEQLKSGTASVVCLLNNFYPREAKVQWKVDNALQSGNSQESVTEQDSKDSTYSLSSTLTLSKADYEKHKVYACEVTHQGLSSPVTKSFNRGEC
B7: DVD3118 (bispecific antibody, human IgG1, kappa)
heavy: not shown
light: DVVMTQSPLSLPVTLGQPASISCRSSQSLVHSHGNTYLHWYQQRPGQSPRLLIYTVSNRFSGVPDRFSGSGSGTDFTLKISRVEAEDVGVYYCSQSTHVPYTFGGGTKVEIKRGGSGGGGSGDIQMTQSPSSLSASVGDRVTITCRASQDIENYLNWYQQKPGKAPKLLIYYTSRLQSGVPSRFSGSGSGTDFTLTISSLQPEDFATYFCQQGNTQPPTFGQGTKLEIKRTVAAPSVFIFPPSDEQLKSGTASVVCLLNNFYPREAKVQWKVDNALQSGNSQESVTEQDSKDSTYSLSSTLTLSKADYEKHKVYACEVTHQGLSSPVTKSFNRGEC
B8: DVD3117 (bispecific antibody, human IgG1, kappa)
heavy: not shown
light: DIQMTQSPSSLSASVGDRVTITCRASQDIENYLNWYQQKPGKAPKLLIYYTSRLQSGVPSRFSGSGSGTDFTLTISSLQPEDFATYFCQQGNTQPPTFGQGTKLEIKRTVAAPDIQMTQSPSSLSASVGDRVTITCRASQLVSSAVAWYQQKPGKAPKLLIYWASARHTGVPSRFSGSGSGTDFTLTISSLQPEDFATYYCQQHYKTPFTFGQGTKLEIKRTVAAPSVFIFPPSDEQLKSGTASVVCLLNNFYPREAKVQWKVDNALQSGNSQESVTEQDSKDSTYSLSSTLTLSKADYEKHKVYACEVTHQGLSSPVTKSFNRGEC
B9: DVD3159 (bispecific antibody, human IgG1, kappa)
heavy: not shown
light: DIQMTQSPSSLSASVGDRVTITCRASQGIRNYLNWYQQKPGKAPKLLIYYASNLEVGVPSRFSGSGSGTDYTLTISSLQPEDFATYYCQQDNRFPYTFGGGTKVEIKRTVAAPDIQMTQSPSSLSASVGDRVTITCKASQLVSSAVAWYQQKPGKAPKLLIYWASTLHTGVPSRFSGSGSGTDFTLTISSLQPEDFATYYCQQHYRTPFTFGQGTKLEIKRTVAAPSVFIFPPSDEQLKSGTASVVCLLNNFYPREAKVQWKVDNALQSGNSQESVTEQDSKDSTYSLSSTLTLSKADYEKHKVYACEVTHQGLSSPVTKSFNRGEC
B10: DVD2688 (bispecific antibody, human IgG1, kappa)
heavy: not shown
light: DIQMTQSPSSLSASVGDRVTISCRASQDIRNYLNWYQQKPGKAPKLLIFYTSKLHSGVPSRFSGSGSGTDYTLTISSLQPEDIATYYCQQGLTPPLTFGGGTKVEIKRGGSGGGGSGDIQMTQSPSSLSASVGDRVTITCRASQLVSSAVAWYQQKPGKAPKLLIYWASARHTGVPSRFSGSGSGTDFTLTISSLQPEDFATYYCQQHYKTPFTFGQGTKLEIKRTVAAPSVFIFPPSDEQLKSGTASVVCLLNNFYPREAKVQWKVDNALQSGNSQESVTEQDSKDSTYSLSSTLTLSKADYEKHKVYACEVTHQGLSSPVTKSFNRGEC
B11: DVD3119 (bispecific antibody, human IgG1, kappa)
heavy: not shown
light: DVVMTQSPLSLPVTLGQPASISCRSSQSLVHSHGNTYLHWYQQRPGQSPRLLIYTVSNRFSGVPDRFSGSGSGTDFTLKISRVEAEDVGVYYCSQSTHVPYTFGGGTKVEIKRTVAAPDIQMTQSPSSLSASVGDRVTITCRASQDIENYLNWYQQKPGKAPKLLIYYTSRLQSGVPSRFSGSGSGTDFTLTISSLQPEDFATYFCQQGNTQPPTFGQGTKLEIKRTVAAPSVFIFPPSDEQLKSGTASVVCLLNNFYPREAKVQWKVDNALQSGNSQESVTEQDSKDSTYSLSSTLTLSKADYEKHKVYACEVTHQGLSSPVTKSFNRGEC
B12: DVD3122 (bispecific antibody, human IgG1, kappa)
heavy: not shown
light: B11 light
B13: DVD3121 (bispecific antibody, human IgG1, kappa)
heavy: not shown
light: DVVMTQSPLSLPVTLGQPASISCRSSQSLVHSHGNTYLHWYQQRPGQSPRLLIYTVSNRFSGVPDRFSGSGSGTDFTLKISRVEAEDVGVYYCSQSTHVPYTFGGGTKVEIKRTVAAPSVFIFPPDIQMTQSPSSLSASVGDRVTITCRASQDIENYLNWYQQKPGKAPKLLIYYTSRLQSGVPSRFSGSGSGTDFTLTISSLQPEDFATYFCQQGNTQPPTFGQGTKLEIKRTVAAPSVFIFPPSDEQLKSGTASVVCLLNNFYPREAKVQWKVDNALQSGNSQESVTEQDSKDSTYSLSSTLTLSKADYEKHKVYACEVTHQGLSSPVTKSFNRGEC
B14: DVD3158 (bispecific antibody, human IgG1, kappa)
heavy: not shown
light: DIQMTQSPSSLSASVGDRVTITCRASQGIRNYLNWYQQKPGKAPKLLIYYASNLEVGVPSRFSGSGSGTDYTLTISSLQPEDFATYYCQQDNRFPYTFGGGTKVEIKRGGSGGGGSGDIQMTQSPSSLSASVGDRVTITCKASQLVSSAVAWYQQKPGKAPKLLIYWASTLHTGVPSRFSGSGSGTDFTLTISSLQPEDFATYYCQQHYRTPFTFGQGTKLEIKRTVAAPSVFIFPPSDEQLKSGTASVVCLLNNFYPREAKVQWKVDNALQSGNSQESVTEQDSKDSTYSLSSTLTLSKADYEKHKVYACEVTHQGLSSPVTKSFNRGEC

For the first assay, the target named is Recombinant Human TNF-α/TNFSF1A (human, UniProt P01375 77-233). The assay can be described thus: cell-based or functional assay.
Recombinant Human TNF-α/TNFSF1A, sequence (P01375 77-233 limits assumed): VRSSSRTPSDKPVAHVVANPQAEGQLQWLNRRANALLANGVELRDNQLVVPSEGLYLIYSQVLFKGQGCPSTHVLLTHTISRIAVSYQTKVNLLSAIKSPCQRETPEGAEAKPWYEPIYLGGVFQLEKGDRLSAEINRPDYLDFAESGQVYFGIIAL
For the molecule B1, the “N-Terminal VD huTNFα Neutralization Assay IC50” value is 6 pM. On the same count and under the same terms, the same measure for B2: 8 pM. Same read-out and setting: the same measure for B3: 14 pM.

The next assay deals with Recombinant Human β-NGF (human, UniProt P01138 122-241). The assay can be described thus: cell-based or functional assay.
Recombinant Human β-NGF, sequence (P01138 122-241 limits assumed): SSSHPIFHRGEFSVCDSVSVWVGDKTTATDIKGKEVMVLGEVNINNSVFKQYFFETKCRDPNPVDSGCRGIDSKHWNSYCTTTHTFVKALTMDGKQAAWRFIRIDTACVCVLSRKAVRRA
As for B1, the “C-Terminal VD NGF Neutralization Assay IC50” value came to 2.9 nM. Consider B4, for which the “N-Terminal VD NGF Neutralization Assay IC50” value was more than 10 nM. As for B2, the “C-Terminal VD NGF Neutralization Assay IC50” value turned out to be 6.85 nM. Same read-out and setting: to B3 belongs 0.624 nM. For the molecule B5, the “NGF Neutralization Assay IC50” value turned out to be 7 pM.

For the next assay, the target named is Recombinant Human IL-13 (human, UniProt P35225 35-146, limits assumed). The assay can be described thus: cell-based or functional assay.
Recombinant Human IL-13, sequence (P35225 35-146 limits assumed): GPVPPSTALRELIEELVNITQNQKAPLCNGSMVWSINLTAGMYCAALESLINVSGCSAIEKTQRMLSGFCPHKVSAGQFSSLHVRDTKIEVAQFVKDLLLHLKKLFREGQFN
As for B6, the “IL-13 Neutralization Assay IC50” value came out at 0.147 nM. On the same count and under the same terms, the same measure for B7: 0.013 nM; for B8: 0.015 nM; for B9: 0.087 nM.

For the molecule B10, the “IL-13 Neutralization Assay IC50” value came to 0.094 nM. The same measure, in the same setting: the same measure for B11: 0.051 nM; for B12: 0.011 nM; for B13: 0.013 nM.

In the case of B14, the “IL-13 Neutralization Assay IC50” value was determined as 0.137 nM.
